pKd: −log10 of the molar value.
Experiments:
[1] = target: human IgE (SUS-11 IgE) (human) (UniProt P01854); assay: SPR (BIAcore), IgE amine-coupled to CM5 chip, monophasic model
[2] = target: human IgE (SUS-11 IgE) (human) (UniProt P01854); assay: competition ELISA: SUS-11 IgE (1 µg/ml) pre-incubated with the antibody, captured on anti-IgE Le27; blocked ligand is HRP-labeled FcεRIα-HSA-FcεRIα (DFP); binding without competitor = 100 %

UniProt P01854, sequence (P01854 other isoform, or with tags, fused parts or gaps): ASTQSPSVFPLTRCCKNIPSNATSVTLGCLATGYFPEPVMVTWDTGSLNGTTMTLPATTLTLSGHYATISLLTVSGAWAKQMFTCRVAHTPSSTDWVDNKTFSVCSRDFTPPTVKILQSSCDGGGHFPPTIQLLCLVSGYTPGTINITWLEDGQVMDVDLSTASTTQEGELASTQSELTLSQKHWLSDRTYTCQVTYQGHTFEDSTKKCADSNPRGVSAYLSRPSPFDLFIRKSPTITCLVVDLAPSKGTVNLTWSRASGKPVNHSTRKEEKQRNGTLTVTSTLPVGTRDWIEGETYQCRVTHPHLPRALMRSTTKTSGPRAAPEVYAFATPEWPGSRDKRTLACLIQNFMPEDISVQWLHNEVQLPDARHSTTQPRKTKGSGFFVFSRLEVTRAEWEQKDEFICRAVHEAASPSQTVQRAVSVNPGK

Substance “BSW17, mouse monoclonal anti-human IgE antibody (hybridoma ECACC 96121916)” has a pKd [1] of 9.28, a koff [1] of 4.2e-06 s⁻¹ and a kon [1] of 8000 M⁻¹ s⁻¹. It also gave an IC50 (read off the curve) [2] of 0.4 µg/mL.

— US7041288
